Measurements reported in the RNAGym collection of RNA variant scans (doi:10.7554/elife.80360).

B1: CPEB3 Ribozyme (parent)
chain: GGGGGCCACAGCAGAAGCGUUCACGUCGCGGCCCCUGUCAGAUUCUGGUGAAUCUGCGAAUUCUGCUGU

Variants of: B1
Assay: self-cleavage, relative activity (ratio to wild type); higher = more cleavage; co-transcriptional

| Variant | self-cleavage |
| --- | --- |
| G25A U46G | 0.174 |
| C24A G58C | 0.509 |
| G25U G56C | 0.158 |
| G25U G56U | 0.134 |
| G25U G56A | 0.171 |
| G25C C29A | 0.143 |
| C24G G31U | 0.215 |
| A23U U55G | 0.908 |
| A23U U55A | 0.877 |
| G25C C57U | 0.143 |
| G25C C57G | 0.141 |
| G25C U36C | 0.24 |
| G25C U36A | 0.201 |
| C24U U64G | 0.466 |
| C24G U26G | 0.344 |
| C24G U26A | 0.206 |
| C24G U64A | 0.325 |
| G25U G28U | 0.145 |
| C24G C66U | 0.502 |
| C24A G50U | 0.722 |
| G25A C35A | 0.21 |

| Variant | self-cleavage |
| --- | --- |
| C24A C63G | 0.392 |
| U26A G56A | 0.748 |
| U26A U49G | 0.866 |
| U26A U49A | 0.866 |
| U26A U49C | 0.79 |
| C24G G28C | 0.224 |
| C24G G28U | 0.13 |
| A23U U61C | 0.895 |
| G25U U49A | 0.12 |
| C24G G47C | 0.502 |
| U26A A60C | 0.285 |
| G25U U64G | 0.189 |
| U26A G31C | 0.18 |
| U26A G31U | 0.27 |
| G25U C34A | 0.153 |
| C24A U69C | 0.972 |
| C24U C39A | 0.315 |
| C24U C39U | 0.549 |
| C24U C39G | 0.619 |
| C24U C54G | 0.586 |
| C24U U26C | 0.626 |

| Variant | self-cleavage |
| --- | --- |
| C24U U26G | 0.448 |
| C24U U26A | 0.257 |
| G25C G41U | 0.144 |
| G25A G28U | 0.132 |
| G25A G28A | 0.131 |
| C24G C54U | 0.602 |
| A23U U43G | 0.884 |
| C24A G31A | 0.372 |
| G25C U44C | 0.144 |
| G25C U44G | 0.139 |
| G25A U49A | 0.155 |
| G25U U43G | 0.148 |
| G25U U43A | 0.0919 |
| G25U U43C | 0.122 |
| C24G A40U | 0.14 |
| U26A C45G | 0.895 |
| U26A C45A | 0.828 |
| U26A C45U | 0.879 |
| C24A C34U | 0.803 |
| C24A C35A | 0.185 |
| C24A C35U | 0.476 |

| Variant | self-cleavage |
| --- | --- |
| C24A G47C | 0.765 |
| C24A G47U | 0.754 |
| C24G A42C | 0.385 |
| C24G C39A | 0.214 |
| C24G C39G | 0.324 |
| A23U G28A | 0.226 |
| C24G G65C | 0.242 |
| C24G G65U | 0.243 |
| U26A G47C | 0.891 |
| G25C C32U | 0.179 |
| G25A A60C | 0.142 |
| U26A G50U | 0.818 |
| C24G G56C | 0.245 |
| U26A C27A | 0.424 |
| U26A A59C | 0.322 |
| C24A U64G | 0.508 |
| C24A U64C | 0.471 |
| A23U U69G | 1.04 |
| G25C U43A | 0.139 |
| G25U C27A | 0.213 |
| G25U C27U | 0.164 |
